Columns and labels:
[1] = molecular target: T1, full-length human IL-36R on cells (human, UniProt Q9HB29 20-575); test: cell-based or functional assay
T1 sequence (looked up): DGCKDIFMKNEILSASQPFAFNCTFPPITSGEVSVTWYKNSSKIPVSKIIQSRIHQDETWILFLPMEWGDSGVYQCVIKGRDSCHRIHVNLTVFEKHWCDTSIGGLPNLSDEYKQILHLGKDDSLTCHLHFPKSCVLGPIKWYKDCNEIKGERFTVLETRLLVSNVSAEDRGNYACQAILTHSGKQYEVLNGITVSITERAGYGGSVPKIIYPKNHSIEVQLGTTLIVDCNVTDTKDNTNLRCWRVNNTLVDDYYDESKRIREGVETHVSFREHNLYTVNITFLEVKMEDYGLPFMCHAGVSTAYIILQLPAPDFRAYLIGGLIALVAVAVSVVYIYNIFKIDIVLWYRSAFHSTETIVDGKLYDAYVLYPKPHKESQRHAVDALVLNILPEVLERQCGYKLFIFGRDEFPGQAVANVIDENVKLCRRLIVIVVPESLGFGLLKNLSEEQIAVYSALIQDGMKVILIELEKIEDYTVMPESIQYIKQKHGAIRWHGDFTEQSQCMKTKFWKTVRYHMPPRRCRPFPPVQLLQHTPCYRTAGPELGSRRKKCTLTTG

[2] = molecular target: T2, Macaca fascicularis IL-36R on cells (Macaca fascicularis, UniProt A0A2K5WSK9 20-558); test: cell-based or functional assay
T2 sequence: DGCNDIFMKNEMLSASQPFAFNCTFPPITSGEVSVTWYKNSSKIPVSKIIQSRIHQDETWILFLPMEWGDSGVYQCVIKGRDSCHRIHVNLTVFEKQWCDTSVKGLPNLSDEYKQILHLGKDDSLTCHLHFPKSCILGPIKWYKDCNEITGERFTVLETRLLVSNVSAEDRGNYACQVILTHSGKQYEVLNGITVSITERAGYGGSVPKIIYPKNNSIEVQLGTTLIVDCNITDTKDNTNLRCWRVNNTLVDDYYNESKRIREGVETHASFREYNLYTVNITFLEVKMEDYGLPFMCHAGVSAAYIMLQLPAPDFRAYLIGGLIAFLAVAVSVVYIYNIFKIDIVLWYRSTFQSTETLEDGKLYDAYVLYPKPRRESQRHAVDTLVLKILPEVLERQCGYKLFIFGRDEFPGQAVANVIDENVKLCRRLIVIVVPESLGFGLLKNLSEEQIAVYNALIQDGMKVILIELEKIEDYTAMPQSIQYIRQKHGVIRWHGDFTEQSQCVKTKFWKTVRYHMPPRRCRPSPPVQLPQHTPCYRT

[3] = molecular target: T3, recombinant human IL-36R extracellular domain expressed with a C-terminal myc-myc-hexahistidine tag (human, UniProt Q9HB29 20-337); test: SPR (Biacore 4000), mAb captured on anti-human Fc, 25°C
T3 construct: also called hIL-36R-MMH; hIL-36R.mmH
Protocol: (§1) Equilibrium dissociation constants (KD values) for IL-36R binding to purified anti-IL-36R antibodies were determined using a real-time surface plasmon resonance biosensor using a Biacore 4000 instrument. The Biacore sensor surface was first derivatized by amine coupling with a monoclonal mouse anti-human Fc antibody (GE, # BR-1008-39) to capture anti-IL-36R monoclonal antibodies. All binding studies were performed in 0.01 M Hepes pH 7.4, 0.15 M NaCl, 3 mM EDTA, and 0.05% v/v Surfactant Tween-20 (HBS-ET running buffer) at 25° C. and 37° C. Different concentrations of IL-36R reagents, human IL-36R extracellular domain expressed with a C-terminal myc-myc-hexahistidine tag (hIL-36R-MMH), Macaca fascicularis IL-36R extracellular domain expressed with a C-terminal myc-myc-hexahistidine tag (mfIL-36R-MMH: mROR1 signal sequence (M1-A29). Macaca fascicularis IL36R_ecto domain (D20-A336).mycmycHis6), human IL-36R extracellular domain expressed with a C-terminal mouse IgG2a Fc tag (hIL-36R-mFc: mROR1 signal sequence (M1-A29)-human IL36R (D20-Y337)-mouse IgG2aFc (E98-K330)) or an in-line fusion protein of human IL-36R extracellular domain and IL1RAcP extracellular domain expressed with mouse IgG2a Fc tag (hIL-36R-Trap-mFc: mROR1 signal sequence (M1-A29)-human IL36R ecto domain (D20-Y337)-human IL1RacP ecto domain(S21-E359)-mouse IgG2aFc) in HBS-ET running buffer (ranging from 100 nM to 3.7 nM, 3-fold dilutions) were injected over the anti-IL-36R antibody captured surface for 4 minutes at a flow rate of 30 μL/minute and their dissociation in HBS-ET running buffer was monitored for 10 minutes. Kinetic association rate constant (kₐ) and dissociation rate constant (kd) were determined by fitting the real-time sensorgrams to a 1:1 binding model using Scrubber 2.0c curve fitting software. Binding dissociation equilibrium constants (KD) and dissociative half-lives (t_{1/2}) were calculated from the kinetic rate constants as: […]

[4] = molecular target: T3, recombinant human IL-36R extracellular …; test: SPR (Biacore 4000), mAb captured on anti-human Fc, 37°C
Protocol: as §1

B1: H4H14760P2 (antibody, human IgG4 S228P, kappa, V domains shown)
VH: QVQLVESGGGVVQPGKSLRLSCAASGFTFSNYGIHWVRQAPGKGLEWVAIILYDGSNQHYADSVKGRFTISRDNSKNTLYLQMNNLRAEDTAVYYCARDLDLWSGYYTNGDGMDVWGQGTTVTVSS
VL: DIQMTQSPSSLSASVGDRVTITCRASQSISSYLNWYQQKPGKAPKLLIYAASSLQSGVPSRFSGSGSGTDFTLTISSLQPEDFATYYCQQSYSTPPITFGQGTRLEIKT
[1]
  IC50 [M], NFκB-luciferase, 10 pM hIL-36γ: 7e-10 M
  IC50 [M], NFκB-luciferase, 20 pM hIL-36α: 4.9e-10 M
  Max Inhibition (%), NFκB-luciferase, 10 pM hIL-36γ: 49%
  Max Inhibition (%), NFκB-luciferase, 20 pM hIL-36α: 99%
[2]
  IC50 [M], NFκB-luciferase, 300 pM hIL-36γ: > 1e-07 M
  IC50 [M], NFκB-luciferase, 600 pM hIL-36β: > 1e-07 M
  Max Inhibition (%), NFκB-luciferase, 300 pM hIL-36γ: 43%
  Max Inhibition (%), NFκB-luciferase, 600 pM hIL-36β: 48%
[3]
  100 nM hIL-36R-MMH Bound (RU): 61 RU
  Kd: 6.11 nM
  koff: 0.000415 s⁻¹
  kon: 67900 M⁻¹ s⁻¹
  t½: 28 min
[4]
  100 nM hIL-36R-MMH Bound (RU): 83 RU
  Kd: 23 nM
  koff: 0.00208 s⁻¹
  kon: 90600 M⁻¹ s⁻¹
  t½: 6 min
